Laboratory results as given in patent US20220378931A1 (Eli Lilly, published 2022).

What was measured:
[1] = target: T1, human insulin receptor isoform A with C-terminal C9 tag (human, UniProt P06213 28-1382); assay: 125I-insulin competition SPA, hIR-A membranes, 0.1% HSA
T1 construct: membranes of stably transfected HEK293 cells; also called hIR-A; human IR-A

[2] = target: T2, human insulin receptor isoform B with C-terminal C9 tag (human, UniProt P06213 28-1382); assay: 125I-insulin competition SPA, hIR-B membranes, 0.001% NP-40
T2 construct: membranes of stably transfected HEK293 cells; also called hIR-B; human IR-B

[3] = target: T1, human insulin receptor isoform A with …; assay: 125I-insulin competition SPA, hIR-A membranes, 0.001% NP-40
rabbit serum albumin = target: T3, rabbit serum albumin (rabbit, UniProt P49065 25-608); assay: SPR (Biacore 8K), albumin immobilised, 25 C
T3 construct: bought protein, amine-coupled to a CM5 chip; also called Rabbit SA
Experimental: (§1) Immobilization of serum albumin to a Series S Sensor Chip CM5 surface is performed according to the manufacturer's instructions (Amine Coupling Kit BR-1000-50). Briefly, carboxyl groups on the sensor chip surfaces (flow cell 1 and 2) are activated by injecting 70 μL of a mixture containing 75 mg/ml EDC and 11.5 mg/ml NHS at 10 μL/min. Human, cynomolgus monkey, mouse, rat, pig, dog, cow and rabbit serum albumin are diluted in 10 mM NaOAc pH 4.0 (BR-1003-49) at 1, 1, 3, 1, 1, 1, 1 and 1 μg/mL and then injected over the activated chip surfaces (flow cell 2, […]) at 10 μL/min for 90 sec (human, mouse, rat, pig and cow serum albumin are obtained from Sigma Aldrich (St. Louis, Mo.); cynomolgus monkey serum albumin is obtained from Holzel Diagnostika (Cologne, Germany); dog serum albumin is obtained from Molecular Innovations (Novi, Mich.); and rabbit serum albumin is obtained from Fitzgerald Industries International (Acton, Mass.)). […] Excess reactive groups on the surfaces (flow cell 1 and 2) are deactivated by injecting 70 μL of 1 M ETA HCl—NaOH pH 8.5 at 10 μL/min.
(§2) 150 μL of sample is individually injecting sequentially across the immobilized serum albumins surface and then dissociates for 600 sec at 50 μL/min flow rate at 25° C. The surface is regenerated by injecting 10 mM glycine-HCl pH 1.5 (BR-1003-54) at 50 μL/min for 100 sec. The resulting sensorgrams are analyzed using Biacore 8K Insight Evaluation Software (version 2.0.15.12933) 1:1 binding kinetics or steady-state affinity model fitting to calculate the binding kinetic parameter association rate (ka), dissociation rate (kd), and equilibrium dissociation constant (KD)

[4] = target: T2, human insulin receptor isoform B with …; assay: 125I-insulin competition SPA, hIR-B membranes, 0.1% BSA
cow serum albumin = target: T4, cow serum albumin (cow, UniProt P02769 25-607); assay: SPR (Biacore 8K), albumin immobilised, 25 C, steady-state affinity
T4 construct: bought protein, amine-coupled to a CM5 chip; also called Cow SA; Bovine SA

[5] = target: T1, human insulin receptor isoform A with …; assay: 125I-insulin competition SPA, hIR-A membranes, 0.1% BSA
[6] = target: T2, human insulin receptor isoform B with …; assay: 125I-insulin competition SPA, hIR-B membranes, 0.1% HSA
rat serum albumin = target: T5, rat serum albumin (rat, UniProt P02770 25-608); assay: SPR (Biacore 8K), albumin immobilised, 25 C, 1:1 kinetics
T5 construct: bought protein, amine-coupled to a CM5 chip; also called Rat SA; RSA
Experimental: as §1, §2

human serum albumin = target: T6, human serum albumin (human, UniProt P02768 25-609); assay: as above
T6 construct: bought protein, amine-coupled to a CM5 chip; also called Human SA; HSA
Experimental: as §1, §2

dog serum albumin = target: T7, dog serum albumin (dog, UniProt P49822 25-608); assay: as above
T7 construct: bought protein, amine-coupled to a CM5 chip; also called Dog SA
Experimental: as §1, §2

pig serum albumin = target: T8, pig serum albumin (pig, UniProt P08835 25-607); assay: as above
T8 construct: bought protein, amine-coupled to a CM5 chip; also called Pig SA
Experimental: as §1, §2

mouse serum albumin = target: T9, mouse serum albumin (mouse, UniProt P07724 25-608); assay: as above
T9 construct: bought protein, amine-coupled to a CM5 chip; also called Mouse SA
Experimental: as §1, §2

[7] = target: T10, cynomolgus monkey serum albumin (cynomolgus monkey, UniProt A2V9Z4 25-608); assay: as above
T10 construct: bought protein, amine-coupled to a CM5 chip; also called Cyno SA
Experimental: as §1, §2

B1: INS Analog 25 (other)
chain: FVSQHLCGSHLVEALRLVCGERGFFYTPKTGGGGGGGIVEQCCTSICSLYQLENYCGGGGGQGGGGQGGGGQGGGGQGGGGQEVQLLESGGGLVQPGGSLRLSCAASGRYIDETAVAWFRQAPGKEREFVAGIGGGVDITYYADSVKGRFTISRDNSKNTLYLQMNSLRPEDTAVYYCAARPGRPLITSKVADLYPYWGQGTLVTVSSPP
notes: single-chain insulin B-L2-A-L1-VHH fusion; also called Ex. 25
- Ki [1]: 125 nM
- Ki [2]: 641 nM
- Ki [3]: 174 nM
- binding result (rabbit serum albumin): no binding (tested: up to 1000 nM)
- Ki [4]: 790 nM
- Kd (cow serum albumin): 390 nM
- Ki [5]: 630 nM
- Ki [6]: 279 nM
- Kd (rat serum albumin): 34 nM
- koff (rat serum albumin): 0.0066 s⁻¹
- kon (rat serum albumin): 200000 M⁻¹ s⁻¹
- Kd (human serum albumin): 0.32 nM
- koff (human serum albumin): 8.4e-05 s⁻¹
- kon (human serum albumin): 260000 M⁻¹ s⁻¹
- Kd (dog serum albumin): 16 nM
- koff (dog serum albumin): 0.0033 s⁻¹
- kon (dog serum albumin): 200000 M⁻¹ s⁻¹
- Kd (pig serum albumin): 90 nM
- koff (pig serum albumin): 0.011 s⁻¹
- kon (pig serum albumin): 130000 M⁻¹ s⁻¹
- Kd (mouse serum albumin): 42 nM
- koff (mouse serum albumin): 0.0092 s⁻¹
- kon (mouse serum albumin): 220000 M⁻¹ s⁻¹
- Kd [7]: 3.5 nM
- koff [7]: 0.00079 s⁻¹
- kon [7]: 230000 M⁻¹ s⁻¹
